Assay results: patent publication US20190300618A1 (Merck Sharp & Dohme, published 2019)

Experiments:
Assay in all cases: flow cytometry, CHO-K1; single column;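 note: CHO-K1 cells transiently transfected with hCD27 alanine mutant constructs, anti-hCD27 antibody binding measured by flow cytometry, 30 min at 4 °C, wild-type hCD27 binding taken as 100%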
K17A = molecular target: T1, K17A
T1 construct: also called hCD27 K17A
T1 receptor: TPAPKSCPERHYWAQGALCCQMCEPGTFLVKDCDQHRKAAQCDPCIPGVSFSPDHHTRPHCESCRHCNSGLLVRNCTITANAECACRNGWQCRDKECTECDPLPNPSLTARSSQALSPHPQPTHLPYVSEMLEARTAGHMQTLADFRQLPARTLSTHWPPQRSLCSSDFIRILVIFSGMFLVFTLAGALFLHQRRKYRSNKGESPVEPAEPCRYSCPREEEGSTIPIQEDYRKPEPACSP

F28A = molecular target: T2, F28A
T2 construct: also called hCD27 F28A
T2 receptor: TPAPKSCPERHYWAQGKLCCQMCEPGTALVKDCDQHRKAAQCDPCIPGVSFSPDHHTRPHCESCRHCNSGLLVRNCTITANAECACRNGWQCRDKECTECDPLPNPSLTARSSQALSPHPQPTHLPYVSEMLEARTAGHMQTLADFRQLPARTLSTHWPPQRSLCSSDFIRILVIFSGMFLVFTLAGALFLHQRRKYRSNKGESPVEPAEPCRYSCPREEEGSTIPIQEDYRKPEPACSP

D32A = molecular target: T3, D32A
T3 construct: also called hCD27 D32A
T3 receptor: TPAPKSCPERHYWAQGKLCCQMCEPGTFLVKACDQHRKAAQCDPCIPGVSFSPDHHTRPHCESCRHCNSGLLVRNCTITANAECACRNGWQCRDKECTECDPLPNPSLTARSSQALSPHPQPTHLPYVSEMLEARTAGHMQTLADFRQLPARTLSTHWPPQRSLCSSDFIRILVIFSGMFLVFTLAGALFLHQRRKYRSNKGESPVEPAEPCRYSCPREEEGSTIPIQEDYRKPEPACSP

R37A = molecular target: T4, R37A
T4 construct: also called hCD27 R37A
T4 receptor: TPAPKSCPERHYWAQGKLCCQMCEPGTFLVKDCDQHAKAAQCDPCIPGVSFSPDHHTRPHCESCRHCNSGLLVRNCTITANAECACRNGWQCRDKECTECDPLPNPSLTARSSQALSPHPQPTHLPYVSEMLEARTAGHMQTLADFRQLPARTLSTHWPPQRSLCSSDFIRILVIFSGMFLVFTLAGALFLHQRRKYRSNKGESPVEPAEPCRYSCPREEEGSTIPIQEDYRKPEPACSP

K38A = molecular target: T5, K38A
T5 construct: also called hCD27 K38A
T5 receptor: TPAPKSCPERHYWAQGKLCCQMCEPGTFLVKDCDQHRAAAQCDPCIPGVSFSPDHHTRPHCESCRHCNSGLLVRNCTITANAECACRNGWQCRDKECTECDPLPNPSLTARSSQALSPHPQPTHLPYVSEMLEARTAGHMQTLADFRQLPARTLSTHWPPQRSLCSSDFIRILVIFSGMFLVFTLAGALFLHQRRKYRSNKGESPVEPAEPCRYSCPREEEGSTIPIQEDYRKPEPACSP

D43A = molecular target: T6, D43A
T6 construct: also called hCD27 D43A
T6 receptor: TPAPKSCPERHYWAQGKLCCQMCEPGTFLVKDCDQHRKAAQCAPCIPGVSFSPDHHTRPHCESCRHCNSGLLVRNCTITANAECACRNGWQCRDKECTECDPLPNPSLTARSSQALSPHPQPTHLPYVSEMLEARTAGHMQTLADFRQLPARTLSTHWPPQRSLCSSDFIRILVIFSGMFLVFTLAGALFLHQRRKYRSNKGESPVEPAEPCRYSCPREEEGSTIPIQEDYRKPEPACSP

P44A = molecular target: T7, P44A
T7 construct: also called hCD27 P44A
T7 receptor: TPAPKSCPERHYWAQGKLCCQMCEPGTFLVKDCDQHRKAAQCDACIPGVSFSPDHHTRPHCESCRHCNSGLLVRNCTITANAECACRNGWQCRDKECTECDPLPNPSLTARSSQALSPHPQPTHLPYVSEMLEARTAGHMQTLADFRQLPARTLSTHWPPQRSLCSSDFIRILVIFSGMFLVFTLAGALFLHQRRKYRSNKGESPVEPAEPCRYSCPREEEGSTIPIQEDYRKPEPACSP

I46A = molecular target: T8, I46A
T8 construct: also called hCD27 I46A
T8 receptor: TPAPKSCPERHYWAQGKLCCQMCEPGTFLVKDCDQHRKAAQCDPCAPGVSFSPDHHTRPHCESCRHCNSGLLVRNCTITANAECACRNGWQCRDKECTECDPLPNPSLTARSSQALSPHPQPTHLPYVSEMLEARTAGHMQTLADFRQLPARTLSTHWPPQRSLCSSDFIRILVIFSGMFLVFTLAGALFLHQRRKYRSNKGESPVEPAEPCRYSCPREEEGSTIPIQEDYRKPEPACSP

V49A = molecular target: T9, V49A
T9 construct: also called hCD27 V49A
T9 receptor: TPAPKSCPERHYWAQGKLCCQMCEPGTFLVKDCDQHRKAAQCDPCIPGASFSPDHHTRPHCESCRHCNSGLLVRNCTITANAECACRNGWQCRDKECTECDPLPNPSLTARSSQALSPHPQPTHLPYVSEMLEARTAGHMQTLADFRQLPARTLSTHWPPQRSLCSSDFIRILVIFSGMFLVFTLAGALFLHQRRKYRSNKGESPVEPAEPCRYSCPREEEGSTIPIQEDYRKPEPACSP

P8A = molecular target: T10, P8A
T10 construct: also called hCD27 P8A
T10 receptor: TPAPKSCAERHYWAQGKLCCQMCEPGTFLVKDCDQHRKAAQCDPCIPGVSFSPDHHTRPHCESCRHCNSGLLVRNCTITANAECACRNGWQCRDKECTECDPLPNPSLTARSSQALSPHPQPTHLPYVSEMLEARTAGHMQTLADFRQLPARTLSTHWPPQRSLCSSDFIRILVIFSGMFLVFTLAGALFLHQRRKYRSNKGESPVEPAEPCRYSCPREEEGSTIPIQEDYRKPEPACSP

B1: hCD27.15-6B (humanized hCD27.15, human IgG4, Clone 6B) (antibody, V domains shown)
VH: QVQLVQSGAEVKKPGASVKVSCKASGFIIKATYMHWVRQAPGQRLEWMGRIDPANGETKYDPKFQVRVTITADTSASTAYMELSSLRSEDTAVYYCARYAWYFDVWGQGTLVTVSS
VL: DIQMTQSPSSLSASVGDRVTITCRASENIYSFLAWYQQKPGKAPKLLIYHAKTLAEGVTSRFSGSGSGTDFTLTISSLQPEDSATYYCQHYYGSPLTFGQGTRLEIKR
notes: humanized version of hCD27.15 from WO2012/004367 with identical CDR regions; also called hCD27.15 (humanized 6B); hCD27.15 6B humanized antibody
% of WT hCD27 binding (geo mean FITC) (K17A): 120% | % of WT hCD27 binding (geo mean FITC) (F28A): 59.4% | % of WT hCD27 binding (geo mean FITC) (D32A): 50.6% | % of WT hCD27 binding (geo mean FITC) (R37A): 106% | % of WT hCD27 binding (geo mean FITC) (K38A): 97.6% | % of WT hCD27 binding (geo mean FITC) (D43A): 31% | % of WT hCD27 binding (geo mean FITC) (P44A): 68.7% | % of WT hCD27 binding (geo mean FITC) (I46A): 81.9% | % of WT hCD27 binding (geo mean FITC) (V49A): 69% | % of WT hCD27 binding (geo mean FITC) (P8A): 63%
